{
  "source": "patent US20240336661A1",
  "about": "“PEPTIDES DERIVED FROM RUMINOCOCCUS TORQUES” (University of Copenhagen, priority 2021, published 2024)",
  "key": {"[1]": {"system": "H9C2 cardiomyoblasts", "experiment": "Gene expression in H9C2 cardiomyoblasts", "type": "cell-based", "conditions": "q-PCR", "procedure": "FIG. 13. […] The cells were treated with various doses of RUCILP2, and cells were collected for q-PCR quantification on indicated genes. For integrin inhibitor treatment, cells were treated with 10 uM of cRGDyK (Selleckchem, #S7844) for 10 minutes and washed with PBS before treated with RUCILP2. Data are presented as mean+/−SEM of one representative experiment done in technical triplicate. Statistical significance was determined by unpaired two-tailed Student's t-test. *, p<0.05 vs 0 nM RUCILP2.\nCommercially available H9C2 cells (ATCC, #CRL-1446) were seeded on 12-well plates under DMEM/F-12 medium (Dulbecco's Modified Eagle Medium/Nutrient Mixture F-12, Fisher Scientific, #11524436), supplemented with 10% FBS (Fetal Bovine Serum, Fisher Scientific, #11550356) and 1% Penicillin-Streptomycin (Fisher Scientific, #11548876). Cell cultures were maintained in a humidified chamber with 5% CO2 at 37° C., and culture media were changed every 2-3 days.\nAt 70% confluence, the cells were treated with indicated concentrations of recombinant RUCILP2, commercial recombinant irisin (Sigma, #SRP8039-10UG and Phoenix pharmaceuticals, #067-29A), and PBS for 24 h. For integrin inhibitor treatment, cells were treated with 10 μM of CycloRGDyK (Selleckchem, #S7844) for 10 minutes and washed with PBS before treated with recombinant RUCILP2, commercial recombinant irisin and PBS. […]"}, "[2]": {"system": "adipocytes", "experiment": "Oil red O staining of lipids in adipocytes", "type": "cell-based, mouse", "procedure": "FIG. 10. […] Staining was performed on 10% formalin-fixed adipocytes according to the manufacturer's protocol.\nOil red O staining of lipids in adipocytes was performed according to the protocol below: • (1) Fixation—Remove the medium and gently wash the cells twice with PBS. Add formalin (10%) to the cells and incubate for 30 minutes • (2) Discard the formalin and wash the cells twice using sterile water. Add 60% isopropanol to the cells and incubate for 5 minutes • (3) Discard 60% isopropanol and cover the cells evenly with Oil Red O Working Solution. Rotate the plate or dish, and incubate for 15 minutes • (4) Discard the Oil Red O solution and wash the cells four times with water until no excess stain is seen • (5) Add hematoxylin to the cells and incubate for 1 minute. Discard hematoxylin and wash the cells four times with water • (6) Cover the cells with sterile water and view under microscope. Lipid droplets appear red, and nuclei appear blue"}, "[3]": {"system": "perfused rat colon", "experiment": "Hormone release in the isolated perfused rat colon", "from_the_text": "(§1) FIG. 14. Recombinant RUCILP2 stimulates glucagon like peptide-1 (GLP-1) secretion in perfused rat colon when RUCILP2 is perfused through the luminal route. Left, GLP-1 secretion from the isolated perfused rat colon in the presence of RUCILP2, means±SEM, n=6 in each group. Right, baseline subtracted total GLP-1 output during 10-min (minutes 12-21) luminal infusions. **, p<0.01 using Student's t test.\nas §1, with “15.” for “14.”, “Peptide-YY (PYY)” for “glucagon like peptide-1 (GLP-1)”, “PYY” for “GLP-1”\nas §1, with “16.” for “14.”, “somatostatin” for “glucagon like peptide-1 (GLP-1)”, “Somatostatin” for “GLP-1”, “*, p<0.05” for “**, p<0.01”\nAnimals: Male Wistar rats (˜250 g) were obtained from Janvier (Le Genest-Saint-Isle, France) and housed with two to four rats per cage. Rats were allowed one week of acclimatization kept on a 12:12 h light/dark cycle with ad libitum access to water and standard chow.\nIsolation and perfusion of the proximal rat colon: At the day of experiment, non-fasted rats were anaesthetized with a subcutaneous injection of Hypnorm/Midazolam (0.0158 mg fentanyl citrate+0.5 mg fluanisone+0.25 mg midazolam/100 g). When lack of reflexes was established, rats were placed on a heating plate (37° C.) and the abdominal cavity opened. […] A plastic tube was placed in the lumen of the colon, and the colon was gently flushed with isotonic saline (room temperature) to remove luminal contents. Throughout the experimental protocol, a constant luminal flow of saline was applied via a syringe pump (0.15 ml/min). […] A metal catheter was inserted into vena portae to collect the venous effluent. […] As an indicator of health of the colon, perfusion pressure was monitored throughout the experiment. […]\nHormone measurement: Peptide hormones were measured using in-house radioimmunoassays: total GLP-1 (the sum of 7-36NH2, 9-36NH2 and potential mid-terminal cleaved fragments) was measured using a C-terminal specific antibody targeting amidated forms of GLP-1 (code no. 89390). Total PYY (PYY1-36+PYY3-36) was measured with a porcine antiserum (cat. no T-4093; Bachem). Somatostatin was measured using a side-viewing antibody (code no. 1758-5), detecting all bioactive forms of somatostatin."}},
  "data": [
    {"molecule": "RUCILP2: 87 amino acid irisin-like polypeptide cleaved from the Ruminococcus torques FNDC5-like protein RUMTOR_00181; recombinant, 6-His-tagged from E. coli (protein, 6-His tag; Ruminococcus torques, 87 amino acid irisin-like polypeptide cleaved from the Ruminococcus torques FNDC5-like protein RUMTOR_00181; recombinant, 6-His-tagged from E. coli) APVDVKVSEITETSAKASWKNAADGKEAAGYNVYVDGVKLNKELLTEASCGLTNLKAETTYFVEVTAVDAAGNESVKSEKVTFKTLK", "values": [
      {"measurement": "gene expression in H9C2 cardiomyoblasts (markers of cardiomyogenesis)", "setting": "[1]", "value": "stimulate gene expression"},
      {"measurement": "lipid content in adipocytes (oil red O staining)", "setting": "[2]", "value": "reduces lipid content"},
      {"measurement": "gut luminal release of Glucagon-like-peptide-2 (GLP-2)", "setting": "[3]; luminal infusion", "value": "stimulatory effects"},
      {"measurement": "GLP-1 secretion", "setting": "[3]; luminal perfusion", "value": "stimulates"},
      {"measurement": "Peptide-YY (PYY) secretion", "setting": "[3]; luminal perfusion", "value": "stimulates"},
      {"measurement": "somatostatin secretion", "setting": "[3]; luminal perfusion", "value": "stimulates"}
    ]}
  ]
}
